Blank lines part the entries; values can stand above or below the molecule they belong to.
Assays:
[1] = target: T1, NRP1 (Homo sapiens, UniProt O14786); assay: Bio-layer interferometry (BLI) of CTR-RELN-NRP-1 interactions; type: binding; conditions: immobilized biotinylated NRP1
T1 construct: purchased R&D 3870-N1-025
T1 sequence (O14786 22-644 isoform O14786-2 limits assumed): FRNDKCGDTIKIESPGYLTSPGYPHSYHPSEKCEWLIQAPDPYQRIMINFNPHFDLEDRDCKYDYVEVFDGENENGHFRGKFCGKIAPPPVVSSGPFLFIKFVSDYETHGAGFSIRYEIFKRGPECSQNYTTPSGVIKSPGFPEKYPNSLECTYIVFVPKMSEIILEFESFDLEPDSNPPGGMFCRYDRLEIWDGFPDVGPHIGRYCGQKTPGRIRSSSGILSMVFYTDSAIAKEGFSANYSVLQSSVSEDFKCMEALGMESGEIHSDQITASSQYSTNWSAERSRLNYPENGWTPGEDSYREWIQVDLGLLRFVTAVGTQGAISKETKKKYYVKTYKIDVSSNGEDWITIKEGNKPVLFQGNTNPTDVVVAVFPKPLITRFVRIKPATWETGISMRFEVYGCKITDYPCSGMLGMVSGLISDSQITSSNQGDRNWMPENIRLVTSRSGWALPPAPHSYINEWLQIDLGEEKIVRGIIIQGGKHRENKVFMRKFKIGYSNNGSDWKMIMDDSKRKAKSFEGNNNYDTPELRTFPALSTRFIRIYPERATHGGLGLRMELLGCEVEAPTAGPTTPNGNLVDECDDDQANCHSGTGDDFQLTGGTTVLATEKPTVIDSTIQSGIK
Description: (§1) Bio-layer interferometry (BLI) was additionally used to assess NRP1-protein kinetics at 30° C. and 1000 rpm agitation. 1 mg/mL NRP1 (R&D 3870-N1-025) was biotinylated at a 1:2 molar ratio, desalted, and immobilized on the SA biosensor tip (Pall ForteBio) surface. This was followed by 1) 180 seconds baseline buffer diluent, 2) loading of the ligand (NRP1), 3) 180 seconds baseline buffer diluent, 4) 240 seconds association (analyte), and 5) 300 seconds disassociation in assay buffer. Assay buffer: SD Buffer (pH7.4 PBS, 0.05% tween20, 0.01% BSA).
The experimental data were fit with the 1:1 binding model and analyzed with global fitting using Octet Data Analysis software to calculate KD.
as §1, with “was” for “was additionally”, “agitation using previously published methods.” for “agitation.”

[2] = test system: pDAB1 (Tyr232); assay: HRECs treated 5 minutes with recombinant mini-RELN, pDAB1 western blot; type: cell-based, human; conditions: 5 minutes, 4 ug/mL recombinant protein
Description: For in vitro screening of constructs using recombinant mini-RELN on HRECs, the cells were cultured in EBM-2 media enriched with EGM-2 Single Quots (Lonza) at 37° C. and 5% CO2 and experimentally tested at passage 7. 24 h prior experiment, cells were plated on a 6-well plate at 500,000 cells/mL. Two hours before the experiment, the cells were washed with PBS to remove residual growth media and then incubated with a starving media including EBM-2, 1% GlutaMax+0.2% Normicin. Treatments was conducted using recombinant mini RELN constructs obtained from Innovagen and Recombinant Mouse Reelin Protein from R&D systems (3820-MR-025/CF). Each treatment was incubated for 5 minutes at 4 ug/mL concentration and cells were subsequently harvested in lysis buffer was applied constituted of RIPA (Cell signaling), proteases inhibitors (cOmplete™, Mini, EDTA-free Protease Inhibitor Cocktail, Roche), phosphatases inhibitors (PhosSTOP, Roche), 1 μL of proteasome inhibitor MG-132 10 mM, 1% Triton X 100. The lysates were scraped and centrifugated at 15000 rpm for 10 minutes at 4° C. Total protein levels were quantified via BCA assay. For Western Blotting, 3.5 ug protein homogenates were prepared under reducing and denaturing conditions using Laemmli buffer enriched with 10 mM DTT and 5 min boiling. Samples were electrophoretically separated in a 4-20% Gel at 90V and protein transferred to a PVDF membrane using iBlot™ 2 Dry Blotting System. The membrane was blocked using Intercept® (TBS) Blocking Buffer for 2 hours. We detected pDAB1 (Tyr232; 1:1000, rabbit, #3325 Cell signaling), and total protein staining (Licor). Antibodies were diluted using Intercept® (TBS) Blocking Buffer and incubated overnight at 4C under gentle shaking. Prior secondary antibody incubation, membranes were washed 2 times using TBS-T for 10 minutes. As secondary antibodies we used IR Dye 800n CW Goat-anti-Rabbit (925-32211, Licor) diluted 1:10000 in blocking buffer for 1 h at room temperature under gentle shaking. Membranes were washed three times with TBST-T prior IR detection using Odyssey imager. To quantify the results, each band was quantified using ImageJ and data expressed as pDABL:total protein ratio normalized to the control.

[3] = test system: pDAB1 (Tyr232); assay: HRECs treated 5 minutes with HEK 293T-derived mini-RELN media, pDAB1 western blot; type: cell-based, human; conditions: HEK 293T-derived media 1:1, 1:4, 1:14, 5 minutes
Description: The effect of in vitro treatment with RELN or miniRELN protein was also evaluated. HRECs were cultured in EBM-2 media enriched with EGM-2 Single Quots (Lonza) at 37° C. and 5% CO2 and experimentally tested at passage 7. 24 h prior experiment, cells were plated on a 6-well plate at 500,000 cells/mL. Two hours before the experiment, the cells were washed with PBS to remove residual growth media and then incubated with a starving media including EBM-2, 1% GlutaMax+0,2% Normicin. Treatments was conducted using media derived from HEK 293T cells transiently transfected for 24 h with different mini-RELN constructs in the presence of Lipofectamine 2000. HEK-derived Lipofectamine2000-media was used as negative control. HEK 293T-derived media was tested at different ratio 1:1, 1:4, and 1:14 (Transfected media:Starving media). Each treatment was incubated for 5 minutes and cells were subsequently harvested in lysis buffer was applied constituted of RIPA (Cell signaling), proteases inhibitors (cOmplete™, Mini, EDTA-free Protease Inhibitor Cocktail, Roche), phosphatases inhibitors (PhosSTOP, Roche), 1 μL of proteasome inhibitor MG-132 10 mM, 1% Triton X 100. The lysates were scraped and centrifugated at 15000 rpm for 10 minutes at 4° C. Total protein levels were quantified via BCA assay. […] We detected pDAB1 (Tyr232; 1:1000, rabbit, #3325 Cell signaling), and Beta actin (1:5000, mouse, #66009-1-Ig, Proteintech. Antibodies were diluted using Intercept® (TBS) Blocking Buffer and incubated overnight at 4C under gentle shaking. Prior secondary antibody incubation, membranes were washes 2 times using TBS-T for 10 minutes. As secondary antibodies we used IR Dye 800n CW Goat-anti-Rabbit (925-32211, Licor) and IR Dye 680 CW Goat-anti-Mouse (925-68070, Licor) both diluted 1:10000 in blocking buffer for 1 h at room temperature under gentle shaking. Membranes were washed three times with TBS-T prior IR detection using Odyssey imager. To quantify the results, each band was quantified using ImageJ and data expressed as pDAB1:βActin ratio normalized to the control. […]

ka [1]: 12900 M⁻¹ s⁻¹ | kd [1]: 0.00102 s⁻¹
B1: pfcn-huIgG2-C-termH3447R (protein)
chain: MYRMQLLSCIALSLALVTNSAPLERKSSVECPPCPAPPVAGPSVFLFPPKPKDTLMISRTPEVTCVVVDVSHEDPEVQFNWYVDGVEVHNAKTKPREEQFNSTFRVVSVLTVVHQDWLNGKEYKCKVSNKGLPAPIEKTISKTKGQPREPQVYTLPPSREEMTKNQVSLTCLVKGFYPSDIAVEWESNGQPENNYKTTPPMLDSDGSFFLYSKLTVDKSRWQQGNVFSCSVMHEALHNHYTQKSLSLSPGARTSTRKQNYMMNFSRQHGLRRFYNRRRRSLRRYP

B2: hG2Fc-R5-6-C-termH3447R (protein)
chain: MYRMQLLSCIALSLALVTNSAPLERKSSVECPPCPAPPVAGPSVFLFPPKPKDTLMISRTPEVTCVVVDVSHEDPEVQFNWYVDGVEVHNAKTKPREEQFNSTFRVVSVLTVVHQDWLNGKEYKCKVSNKGLPAPIEKTISKTKGQPREPQVYTLPPSREEMTKNQVSLTCLVKGFYPSDIAVEWESNGQPENNYKTTPPMLDSDGSFFLYSKLTVDKSRWQQGNVFSCSVMHEALHNHYTQKSLSLSPGARTGGGGSGGGGSQTNATRFRLWQPYNNGKKEEIWIVDDFIIDGNNVNNPVMLLDTFDFGPREDNWFFYPGGNIGLYCPYSSKGAPEEDSAMVFVSNEVGEHSITTRDLNVNENTIIQFEINVGCSTDSSSADPVRLEFSRDFGATWHLLLPLCYHSSSHVSSLCSTEHHPSSTYYAGTMQGWRREVVHFGKLHLCGSVRFRWYQGFYPAGSQPVTWAIDNVYIGPQCEEMCNGQGSCINGTKCICDPGYSGPTCKISTKNPDFLKDDFEGQLESDRFLLMSGGKPSRKCGILSSGNNLFFNEDGLRMLMTRDLDLSHARFVQFFMRLGCGKGVPDPRSQPVLLQYSLNGGLSWSLLQEFLFSNSSNVGRYIALEIPLKARSGSTRLRWWQPSENGHFYSPWVIDQILIGGNISGNMVLEDDFTTLDSRKWLLHPGGTKMPVCGSTGDALVFIEKASTRYVVSTDVAVNEDSFLQIDFAVSCSVTDSCYAIELEYSVDLGLSWHPLVRDCLPTNVECSRYHLQRILVSDTFNKWTRITLPLPPYTRSQATRFRWHQPAPFDKQQTWAIDNVYIGDGCIDMCSGHGRCIQGNCVCDEQWGGLYCDDPETSLPTQLKDNFNRAPSSQNWLTVNGGKLSTVCGAVASGMALHFSGGCSRLLVTVDLNLTNAEFIQFYFMYGCLITPNNRNQGVLLEYSVNGGITWNLLMEIFYDQYSKPGFVNILLPPDAKEIATRFRWWQPRHDGLDQNDWAIDNVLISGSASTRKQNYMMNFSRQHGLRRFYNRRRRSLRRYP
pDAB1 levels [2]: increased pDAB1 levels

B3: IL2ss-6xHis-FspCR50-R6-R6 Cterm RELN-H3447R (protein)
chain: MYRMQLLSCIALSLALVTNSGGHHHHHHGGGAAGYYPRFSPFFFLCTHHGELEGDGEQGEVLISLHIAGNPTYYVPGQEYHVTISTSTFFDGLLVTGLYTSTSVQASQSIGGSSAFGFGIMSDHQFGNQFMCSVVASHVSHLPTTNLSFIWIAPPAGTGCVNFMATATHRGQVIFKDALAQQLCEQGAPTDVTVHPHLAEIHSDSIILRDDFDSYHQLQLNPNIWVECNNCETGEQCGAIMHGNAVTFCEPYGPRELITTGLNTTTASVLQFSIGSGSCRFSYSDPSIIVLYAKNNSADWIQLEKIRAPSNVSTIIHILYLPEDAKGENVQFQWKQENLRVGEVYEACWALDNILIINGGSRTLDSRKWLLHPGGTKMPVCGSTGDALVFIEKASTRYVVSTDVAVNEDSFLQIDFAVSCSVTDSCYAIELEYSVDLGLSWHPLVRDCLPTNVECSRYHLQRILVSDTFNKWTRITLPLPPYTRSQATRFRWHQPAPFDKQQTWAIDNVYIGDGCIDMCSGHGRCIQGNCVCDEQWGGLYCDDPETSLPTQLKDNFNRAPSSQNWLTVNGGKLSTVCGAVASGMALHFSGGCSRLLVTVDLNLTNAEFIQFYFMYGCLITPNNRNQGVLLEYSVNGGITWNLLMEIFYDQYSSGGGTLDSRKWLLHPGGTKMPVCGSTGDALVFIEKASTRYVVSTDVAVNEDSFLQIDFAVSCSVTDSCYAIELEYSVDLGLSWHPLVRDCLPTNVECSRYHLQRILVSDTFNKWTRITLPLPPYTRSQATRFRWHQPAPFDKQQTWAIDNVYIGDGCIDMCSGHGRCIQGNCVCDEQWGGLYCDDPETSLPTQLKDNFNRAPSSQNWLTVNGGKLSTVCGAVASGMALHFSGGCSRLLVTVDLNLTNAEFIQFYFMYGCLITPNNRNQGVLLEYSVNGGITWNLLMEIFYDQYSTGGSGGSTRKQNYMMNFSRQHGLRRFYNRRRRSLRRYP
pDAB1 / Dab1 signaling activation [3]: efficacy

From US20260139017A1, “COMPOSITIONS AND METHODS USING REELIN IN ALZHEIMER'S DISEASE” (The General Hospital Corporation, priority 2022, published 2026)
